Patent US8153413B2, “High alkaline protease and use thereof” (Japan Agency for Marine-Earth Science and Technology, priority 2004, dated 2012)

B1: alkaline protease ALTP: purified high alkaline protease from Alkaliphillus transvaalensis, mature enzyme amino acid sequence SEQ ID NO: 3 (protein, listed as Alkaliphillus transvaalensis)
chain: AQSTPWGVTRVQAPNVWNRGFTGSGVRVAVLDTGIHSSHEDLTVSGGYSVFGDSPYNDVQGHGTHVAGTIAARNNSVGVIGVAYNAQLYAVKVLNNQGSGTLAGIAQGIEWARQNNMHVINMSLGGTSGSTTLQNAVNAAYNAGILVVAAAGNSGNSAGTGDNVGFPARYPNAMAVAATTSGNVRASFSSTGPAVEIAAPGQDINSTYPTNTYRSLNGTSMAAPHVAGVAALLKSARPAVTAAGIRNAMNSTALNLGNSNWYGNGLVRANNALDMVLSY

Columns and labels:
[1] = test system: invention enzyme; assay: Hydrolysis of natural proteins relative to casein; format: biochemical, Alkaliphillus transvaalensis
[2] = test system: casein; assay: Optimum pH / active pH, casein method; format: biochemical; details: 1% (w/v) casein, 40° C., 15 minutes, highest activity in 50 mmol/L potassium chloride/sodium hydroxide buffer
Experimental: 1 ml of each 50 mmol/L buffer containing 1% (w/v) casein (Hammerstein, Merck) was warmed at 40° C. for 5 minutes, and 0.1 ml of the enzyme solution was then added. A reaction was conducted for from 15 to 20 minutes. Subsequently, 2 ml of a trichloroacetic acid solution (TCA solution: 0.11 mol/L trichloroacetic acid, 0.22 mol/L sodium acetate and 0.33 mol/L acetic acid) was added to terminate the reaction. The reaction solution was allowed to stand at room temperature for 10 minutes, and the acid-modified protein was filtered (No. 2 filter paper, manufactured by Watman). 2.5 ml of an alkaline copper reagent [1% (w/v) potassium sodium tartrate: 1% (w/v) copper sulfate: 2% (w/v) sodium carbonate/0.1 mol/L sodium hydroxide=1:1:100] was added to 0.5 ml of the filtrate, and the mixture was warmed at 30° C. for 10 minutes. Thereafter, 0.25 ml of a dilute phenol reagent [phenol reagent (manufactured by Kanto Kagaku) diluted twofold with deionized water] was added, and the mixture was warmed at 30° C. for 30 minutes. Absorbance at 660 nm was measured with a spectrophotometer to obtain an amount of an acid-soluble protein hydrolyzate. By the way, a system obtained by mixing the enzyme reaction system with a reaction terminator and adding the enzyme solution thereto was used as a blank.
Herein, one unit (PU) of the enzyme referred to an amount of an enzyme in which to liberate the acid-soluble protein hydrolyzate corresponding to 1 μmol of tyrosine for 1 minute under the foregoing reaction conditions.
The invention enzyme was reacted at 40° C. for 15 minutes in various buffers of pH 3.5 to 12.6 containing 1% (w/v) casein as a substrate, and the enzymatic activity at each pH was measured. The results thereof are shown in FIG. 1A in terms of relative activity when the highest activity was defined as 100%.
Acetate buffer ( ? ): pH 3.5 to 6.0, phosphate buffer (▪): pH 6.5 to 8.1, carbonate buffer (◯): pH 9.0 to 11.0, phosphate/sodium hydroxide buffer (●): pH 11.0 to 12.2, and potassium chloride/sodium hydroxide buffer (▴): pH 11.5 to 12.6.

[3] = test system: casein; assay: Optimum temperature, casein method; format: biochemical; details: for influence of Ca2+ / calcium chloride on optimum temperature: calcium chloride 5 mmol/L
Experimental: 0.1 ml of the invention enzyme solution was added to 1 ml of 50 mmol/L borate buffer (pH 10.0) containing 0.5% (w/v) casein as a substrate, and a reaction was conducted at a temperature of from 30 to 85° C. for 15 minutes. Activity was measured by the casein method. Relative activity at each temperature is shown in FIG. 2A in which activity in the absence of calcium chloride at 50° C. is defined as 100%. “●” indicates relative activity in the absence of calcium chloride, and “∘” relative activity in the presence of calcium chloride.

[4] = Thermostability, residual activity after heat treatment by casein method; format: physicochemical; details: for influence of Ca2+ / calcium chloride on thermostability: calcium chloride 5 mmol/L
Experimental: The invention enzyme was added to 50 mmol/L borate buffer (pH 10.0), and heat treatment was conducted at each temperature of from 30 to 75° C. for 10 minutes. The residual activity was measured by the casein method. The residual activity after the heat treatment is shown in FIG. 2B in which activity before the heat treatment is defined as 100%.

[5] = test system: acidic insulin B-chain; assay: Cleavage of acidic insulin B-chain (LC/MS/MS); format: biochemical; details: 30° C.
Experimental: 3 ng of alkaline protease ALTP was added to a solution obtained by adding 0.1 mg of insulin B-chain to 100 μl of 0.1 mol/L Tris-hydrochloride buffer (pH 8.0), and a reaction was conducted at 30° C. for from 1 to 5 minutes. 5 μl of the solution was collected after 1 minute, 2 minutes and 5 minutes from the start-up of the reaction, and the reaction was terminated by addition of 50 μl of a 2% (v/v) acetonitrile/0.1% trifluoroacetic acid solution (pH 2.2). The reaction solutions were analyzed by liquid chromatograph/tandem mass analyzer (LC/MS/MS). A mixture of fragmental peptides digested with alkaline protease ALTP of the invention was separated and concentrated by capillary HPLC, and ionized to obtain MS and MS/MS spectra. The MS/MS data of the peptides was subjected to Turbo Sequest search to identify the digested acidic insulin B-chain fragments and determine the cleavage sites. Because of the search with the MS/MS data, the highly reliable identification results were obtained.
A reaction was conducted at 30° C. for 24 hours under the same conditions as in (i) by changing the concentration of alkaline protease ALTP to 300 ng. After the termination of the reaction, the acidic insulin B-chain fragment digested with alkaline protease ALTP was identified by the foregoing method to determine cleavage sites. […]

[6] = listed as novel alkaline protease

Molecule	hydrolytic activity, casein defined as 100% [1]	optimum pH [2]	optimum pH ([2]; listed as invention enzyme)	optimum pH [2, 6]	optimum temperature ([3]; borate buffer pH 10.0, casein, 15 minutes)	influence of Ca2+ / calcium chloride on optimum temperature [3]	influence of Ca2+ / calcium chloride on optimum temperature ([3]; listed as invention enzyme)	influence of Ca2+ / calcium chloride on optimum temperature [3, 6]	influence of Ca2+ / calcium chloride on thermostability [4]	influence of Ca2+ / calcium chloride on thermostability ([4]; listed as invention enzyme)	influence of Ca2+ / calcium chloride on thermostability [4, 6]	temperature up to which stable without activity drop by heating ([4]; pH 10 for 10 minutes)	bond cleaved first / at the initial stage ([5]; 3 ng ALTP, within 5 minutes)	peptide bonds of 29 peptide bonds cleaved ([5]; 300 ng ALTP, within 24 hours)
hemoglobin	approximately 73%	–	–	–	–	–	–	–	–	–	–	–	–	–
B1	–	12.6	approximately 12.6	approximately 12.6	70 °C	little influenced	unchanged	still unchanged	No improvement	unchanged	still unchanged	up to 65 °C	Leu-Tyr	26
